Results on ten sequences are retold here after patent US20170058005A1 (priority 2014, published 2017).

One experiment has as its target DRB1*0101 (DR1) (Homo sapiens, UniProt P01903+P01911, A100R/D57E/F55L/F60I/F76Y/I96L/L162R/M171V/P40L/Q125E/R42F/V115G/Y59C). The class given is binding.
The target of a further experiment is DRB1*0301 (DR3) (Homo sapiens, UniProt P01903+P01911, A100K/A102G/A103R/A169T/F55Y/I96L/K41T/L162R/M171V/P40S/Q125H/Q178H/Q39Y/R42S/S66N/T106N/T262R/W38E/Y61H). The class given is binding.
The target in the next experiment is DRB1*0401 (DR4) (Homo sapiens, UniProt P01903+P01911, A100K/A169T/F76Y/I96L/K127E/L162R/M171V/N62H/P40V/Q125Y/R42H/S133A/S149N/S66Y/V115G/V209L/W38E). The class given is binding.
The next experiment has as its target DRB1*0701 (DR7) (Homo sapiens, UniProt P01903+P01911, A100R/A102G/A103Q/D57E/D86V/E43K/F76Y/K127E/L162R/M171V/P40G/Q125H/Q99D/R33Q/R42Y/R54Q/S133A/S66F/T210M/V115G/Y107V/Y59L/Y89S). The experiment is classed as binding.
The next experiment concerns the target DRB1*1101 (DR11) (Homo sapiens, UniProt P01903+P01911, A100R/A169T/A87E/I96F/K41T/L162R/M171V/P40S/Q125H/Q178H/Q39Y/Q99D/R42S/S66Y/T262R/V115G/W38E). The experiment is classed as binding.
For another experiment, the target named is DRB1*1301 (DR13) (Homo sapiens, UniProt P01903+P01911, A100E/A169T/K41T/L162R/M171V/P40S/Q125H/Q178H/Q39Y/Q99D/R42S/S66N/T262R/W38E/Y61H). The class given is binding.
Another experiment addresses DRB1*1501 (DR15) (Homo sapiens, UniProt P01903+P01911). The class given is binding.
The subject of experiment [1] is CD4^+ T cells of HLA class II transgenic mice. The class given is cell-based.
In the next experiment the test system is HLA-DR molecules. The experiment is classed as binding, human.

Turning to SDVLEMYKAIGGKIYIVDGD, the “Relative binding affinity of peptide to HLA-DR molecules, DR1” value with DRB1*0101 (DR1) was 5. Further, the “Relative binding affinity of peptide to HLA-DR molecules, DR3” value (from here on “Relative binding affinity of peptide … DR3”) in the experiment with DRB1*0301 (DR3) is given as more than 76. The “Relative binding affinity of peptide to HLA-DR molecules, DR4” value (“Relative binding affinity of peptide … DR4” for short) with DRB1*0401 (DR4) is listed as 305. Moreover, the “Relative binding affinity of peptide to HLA-DR molecules, DR7” value (“Relative binding affinity of peptide … DR7” for short) in the experiment with DRB1*0701 (DR7) came out at 1. Also, the “Relative binding affinity of peptide to HLA-DR molecules, DR11” value (“Relative binding affinity of peptide … DR11” for short) in the experiment with DRB1*1101 (DR11) was found to be 4. For the same sequence, the “Relative binding affinity of peptide to HLA-DR molecules, DR13” value (from here on “Relative binding affinity of peptide … DR13”) in the experiment with DRB1*1301 (DR13) amounted to 123. In the experiment with DRB1*1501 (DR15), the “Relative binding affinity of peptide to HLA-DR molecules, DR15” value (from here on “Relative binding affinity of peptide … DR15”) is recorded as 2. Moreover, in experiment [1], the “CD4 T cell response in LF immunized HLA transgenics” value is listed as “HLA-DQ8 specific response” and the “HLA-restriction based on CD4 T cell response class II HLA transgenics after priming with LF” value (from here on “HLA-restriction based”) is recorded as “DQ8”. Also, the “Binding across all HLA-DR alleles assayed” value with HLA-DR molecules is “strong to moderate binding across all seven HLA-DR alleles”.

For the sequence QNSNEVQEVFAKAFAYYIEP, in the experiment with DRB1*0101 (DR1), the “Relative binding affinity of peptide to HLA-DR molecules, DR1” value is 0.1. The “Relative binding affinity of peptide … DR3” value with DRB1*0301 (DR3) was 173. For the same sequence, the “Relative binding affinity of peptide … DR4” value with DRB1*0401 (DR4) is given as 137. Further, the “Relative binding affinity of peptide … DR7” value in the experiment with DRB1*0701 (DR7) is listed as 0.4. Moreover, in the experiment with DRB1*1101 (DR11), the “Relative binding affinity of peptide … DR11” value was 2. Besides, the “Relative binding affinity of peptide … DR13” value with DRB1*1301 (DR13) came out at 327. For the same sequence, the “Relative binding affinity of peptide … DR15” value with DRB1*1501 (DR15) stood at 1. Moreover, the “HLA-restriction based” value in experiment [1] is on record as “DR1”. Moreover, in the experiment on HLA-DR molecules, the “Binding across all HLA-DR alleles assayed” value is “strong to moderate binding across all seven HLA-DR alleles”.

As for QSDLIKKVTNYLVDGNGRFV, in the experiment with DRB1*0101 (DR1), the “Relative binding affinity of peptide to HLA-DR molecules, DR1” value amounted to 12. In the experiment with DRB1*0301 (DR3), the “Relative binding affinity of peptide … DR3” value was 26. The “Relative binding affinity of peptide … DR4” value with DRB1*0401 (DR4) amounted to 15. The “Relative binding affinity of peptide … DR7” value in the experiment with DRB1*0701 (DR7) is given as 4. The “Relative binding affinity of peptide … DR11” value with DRB1*1101 (DR11) is given as 139. Moreover, the “Relative binding affinity of peptide … DR13” value with DRB1*1301 (DR13) turned out to be 38. In addition, in the experiment with DRB1*1501 (DR15), the “Relative binding affinity of peptide … DR15” value came out at 0.2. In [1], the “HLA-restriction based” value is reported as “DR15”. For the same sequence, the “Binding across all HLA-DR alleles assayed” value in the experiment on HLA-DR molecules is recorded as “strong to moderate binding across all seven HLA-DR alleles”.

As for VENTEKALNVYYEIGKILSR, the “Relative binding affinity of peptide to HLA-DR molecules, DR1” value with DRB1*0101 (DR1) is 1. Also, the “Relative binding affinity of peptide … DR3” value with DRB1*0301 (DR3) is 418. Also, the “Relative binding affinity of peptide … DR4” value in the experiment with DRB1*0401 (DR4) came out at 81. In addition, the “Relative binding affinity of peptide … DR7” value with DRB1*0701 (DR7) worked out at 36. Also, in the experiment with DRB1*1101 (DR11), the “Relative binding affinity of peptide … DR11” value is 0.03. The “Relative binding affinity of peptide … DR13” value with DRB1*1301 (DR13) is reported as 71. In addition, the “Relative binding affinity of peptide … DR15” value with DRB1*1501 (DR15) is recorded as 0.2. The “HLA-restriction based” value in experiment [1] is on record as “DR1”. Besides, in the experiment with HLA-DR molecules, the “Binding across all HLA-DR alleles assayed” value is “strong to moderate binding across all seven HLA-DR alleles”.

For EYIRIDAKVVPKSKIDTKIQ, the “Relative binding affinity of peptide to HLA-DR molecules, DR1” value in the experiment with DRB1*0101 (DR1) is 3. Also, in the experiment with DRB1*0301 (DR3), the “Relative binding affinity of peptide … DR3” value was 1. Further, the “Relative binding affinity of peptide … DR4” value in the experiment with DRB1*0401 (DR4) came to 15. The “Relative binding affinity of peptide … DR7” value in the experiment with DRB1*0701 (DR7) was found to be 12. For the same sequence, in the experiment with DRB1*1101 (DR11), the “Relative binding affinity of peptide … DR11” value was 21. Besides, the “Relative binding affinity of peptide … DR13” value with DRB1*1301 (DR13) is 24. Besides, the “Relative binding affinity of peptide … DR15” value in the experiment with DRB1*1501 (DR15) was 156. Also, in experiment [1], the “CD4 T cell response in LF immunized HLA transgenics” value is recorded as “elicited a T cell response in a single HLA transgenic strain” and the “HLA-restriction based” value was “DRI”. The “Binding across all HLA-DR alleles assayed” value with HLA-DR molecules was “strong to moderate binding across all seven HLA-DR alleles”.

In the case of EAQLNINQEWNKALGLPKYT, in the experiment with DRB1*0101 (DR1), the “Relative binding affinity of peptide to HLA-DR molecules, DR1” value was found to be 104. Further, in the experiment with DRB1*0301 (DR3), the “Relative binding affinity of peptide … DR3” value was found to be 173. Also, the “Relative binding affinity of peptide … DR4” value in the experiment with DRB1*0401 (DR4) worked out at 43. The “Relative binding affinity of peptide … DR7” value in the experiment with DRB1*0701 (DR7) was 68. For the same sequence, the “Relative binding affinity of peptide … DR11” value with DRB1*1101 (DR11) was 100. Also, the “Relative binding affinity of peptide … DR13” value with DRB1*1301 (DR13) is 17. For the same sequence, the “Relative binding affinity of peptide … DR15” value with DRB1*1501 (DR15) is reported as 1. Moreover, in [1], the “CD4 T cell response in LF immunized HLA transgenics” value is given as “DQB1*0302 restricted” and the “HLA-restriction based” value was “DR15, DQ8”. In the experiment on HLA-DR molecules, the “Binding across all HLA-DR alleles assayed” value is recorded as “strong to moderate binding across all seven HLA-DR alleles”.

Regarding AKAFAYYIEPQHRDVLQLYA, in the experiment with DRB1*0101 (DR1), the “Relative binding affinity of peptide to HLA-DR molecules, DR1” value stood at 115. In the experiment with DRB1*0301 (DR3), the “Relative binding affinity of peptide … DR3” value is listed as 39. The “Relative binding affinity of peptide … DR4” value in the experiment with DRB1*0401 (DR4) is 51. Moreover, the “Relative binding affinity of peptide … DR7” value with DRB1*0701 (DR7) was 97. Also, in the experiment with DRB1*1101 (DR11), the “Relative binding affinity of peptide … DR11” value turned out to be 4. Besides, the “Relative binding affinity of peptide … DR13” value in the experiment with DRB1*1301 (DR13) is listed as 9. In addition, in the experiment with DRB1*1501 (DR15), the “Relative binding affinity of peptide … DR15” value was 8. Also, the “HLA-restriction based” value in [1] was “DR1”. Besides, in the experiment on HLA-DR molecules, the “Binding across all HLA-DR alleles assayed” value is recorded as “strong to moderate binding across all seven HLA-DR alleles”.

As for NKALGLPKYTKLITFNVHNR, the “Relative binding affinity of peptide to HLA-DR molecules, DR1” value in the experiment with DRB1*0101 (DR1) was determined as 0. Also, in the experiment with DRB1*0301 (DR3), the “Relative binding affinity of peptide … DR3” value is recorded as 250. Further, in the experiment with DRB1*0401 (DR4), the “Relative binding affinity of peptide … DR4” value was 10. Moreover, the “Relative binding affinity of peptide … DR7” value with DRB1*0701 (DR7) stood at 4. For the same sequence, the “Relative binding affinity of peptide … DR11” value with DRB1*1101 (DR11) was 2. Besides, the “Relative binding affinity of peptide … DR13” value in the experiment with DRB1*1301 (DR13) amounted to 19. In addition, the “Relative binding affinity of peptide … DR15” value with DRB1*1501 (DR15) is 3. In experiment [1], the “HLA-restriction based” value is “DR1”. Also, the “Binding across all HLA-DR alleles assayed” value in the experiment with HLA-DR molecules is on record as “strong to moderate binding across all seven HLA-DR alleles”.

Take KELLNRIQVDSSNPLSEKEK: in the experiment with DRB1*0101 (DR1), the “Relative binding affinity of peptide to HLA-DR molecules, DR1” value was 146. The “Relative binding affinity of peptide … DR3” value in the experiment with DRB1*0301 (DR3) was found to be 1. In addition, the “Relative binding affinity of peptide … DR4” value in the experiment with DRB1*0401 (DR4) is given as 0. In the experiment with DRB1*0701 (DR7), the “Relative binding affinity of peptide … DR7” value is 36. Besides, the “Relative binding affinity of peptide … DR11” value with DRB1*1101 (DR11) is 274. Besides, in the experiment with DRB1*1301 (DR13), the “Relative binding affinity of peptide … DR13” value was 1,714. Further, the “Relative binding affinity of peptide … DR15” value in the experiment with DRB1*1501 (DR15) is on record as 1. For the same sequence, the “HLA-restriction based” value in [1] is given as “DQ8”.

Consider SEGFIHEFGHAVDDYAGYLL, for which the “Relative binding affinity of peptide to HLA-DR molecules, DR1” value with DRB1*0101 (DR1) was 5. In the experiment with DRB1*0301 (DR3), the “Relative binding affinity of peptide … DR3” value is >1 000. Also, the “Relative binding affinity of peptide … DR4” value with DRB1*0401 (DR4) was determined as 46. In the experiment with DRB1*0701 (DR7), the “Relative binding affinity of peptide … DR7” value amounted to 131. Further, the “Relative binding affinity of peptide … DR11” value with DRB1*1101 (DR11) is recorded as 849. In addition, the “Relative binding affinity of peptide … DR13” value with DRB1*1301 (DR13) is >2 733. The “Relative binding affinity of peptide … DR15” value with DRB1*1501 (DR15) is recorded as 0.04. Also, in [1], the “CD4 T cell response in LF immunized HLA transgenics” value was “immunodominant epitopes in HLA-DR15 transgenics” and the “HLA-restriction based” value is “DR15”.
